Results from patent US7271245B2, “Methods and compositions for inhibition of metastasis” (The Scripps Research Institute, priority 2004, dated 2007).

Test system: BMS human breast cancer cells
Assay: Tumor cell adhesion under stationary conditions
Assay type: cell-based
Details: 3 μM scFv
Protocol: FIGS. 3A, 3B, 3C, 3D, 3E. scFv Bc-12 and Bc-15 inhibit αvβ3 mediated adhesive breast cancer cell functions. (A) Adhesion of BMS human breast cancer cells to fibrinogen (Fg), vitronectin (VN) or type I collagen (Col I) in the absence or presence of 3 μM Bc-12, Bc-15 or their RGE mutants Mut-12, Mut-15, compared to 200 μM GRGDSPK peptide (SEQ ID NO: 11). Protein coating concentrations: 10 μg/ml (VN, Col I) or 20 μg/ml (Fg). Adhesion time: 30 min at 37° C. (B) Effect of scFvs on haptotactic BMS cell migration toward a fibrinogen substrate (16 hrs at 37° C. in transwell chambers with or without 2 μM Bc-12, Bc-15 or their RGE mutants Mut-12 or Mut-15, compared to 200 μM GRGDSPK peptide) (SEQ ID NO: 11). (C) Effect of scFvs on breast cancer cell arrest during blood flow. Metastatic BMS cells, labeled with hydroethidine, were suspended in human blood (anticoagulated with 50 nM PPACK) and perfused over a collagen I matrix at a venous wall shear rate of 50 s^−1. Under these conditions, breast cancer cells arrest by αvβ3 mediated binding to adherent, thrombus forming platelets. Tumor cell adhesion was quantified by image acquisition at 30 predefined positions during blood flow. Left: representative images of platelet signal (thrombi, green fluorescence) and tumor cell signal (red fluorescence) at identical x,y positions. Right: Number of arrested tumor cells in the presence of 3 μM non-function blocking anti αv scFv Bc-20 or function blocking anti αvβ3 scFvs Bc-12 or Bc-15. (D) scFv Bc-15 is internalized by human breast cancer cells and reduces cell proliferation. Left: confocal images of BMS cells incubated for 4 hrs with FITC-Bc-15 at 4° C. (binding) versus 37° C. (allowing internalization). Right: Phase contrast images of BMS cell cultures 4 days after seeding in the presence of 2 μM RGE containing scFv Mut-15, or RGD containing Bc-15. (E) Effect of scFv Bc-12 on the viability of matrix deprived BMS breast cancer cells in ultra-low-adhesion plates in the presence or absence of 3.7 μM scFv, or 14.36 μM camptothecin as apoptosis inducing control. Measurement of apoptosis was based on cytoplasmic histone-associated DNA fragments after 20 hrs.
Cell adhesion and migration. Tumor cell adhesion under stationary conditions was analyzed as detailed earlier (19). Adhesion buffer was Hanks balanced salt solution (HBSS) pH 7.4, 0.5% BSA, 1 mM MgCl2, 0.2 mM MnCl2. For inhibition, cells were incubated for 5 min at RT either with 3 μM scFv or 200 μM GRGDSPK (SEQ ID NO: 11) peptide, then plated in the presence of inhibitor and allowed to attach for 30 min at 37° C. Haptotactic tumor cell migration toward fibrinogen was analyzed in transwell chambers as detailed earlier. Rolli, M., et al., Proc. Natl. Acad. Sci. U.S.A 100: 9482-9487, 2003. […]

B1: Bc-12: patient derived human scFv antibody against activated αvβ3 with RGD motif in CDR-H3; cDNA ATCC PTA-6303 (protein)
scFv: MAQVQLVQSGAEVKKPGASVKVSCKASGYTFSNYGITWVRQAPGQGLEWMGWINNGNTHYAQKFQGRVTMTTDTSTSTAYMELRSLRSDDTAVYYCARDPRGDDEPYWGQGTLVTVSSGGGGSGGGGSGGGGSEIVLTQSPLSLPVTLGQPASISCRSSQNLVYSDGNTYLSWFQQRPGQSPRRLIYKVSNRDSGVPDRFSGSGSGTDFTLKISRVEAEDIGVYYCMQGTHWPPRTFGQGTKVEIKRGLGGLVDYKDDDDK
adhesion to collagen type I: no effect
attachment to vitronectin: inhibited by Bc-12 and Bc-15, but to a lesser degree
adhesion to immobilized fibrinogen (30 min at 37° C.): efficiently inhibited
